Molecular target: tau-RFP (full-length 2N4R wild-type tau fused to the N-terminus of TagRFP) (UniProt P10636)
Assay: fluorescence lifetime FRET in live HEK293 cells, titration of tau-RFP acceptor to tau-GFP donor

tau-GFP (full-length 2N4R wild-type tau fused to the N-terminus of EGFP) (from UniProt P10636 2-758)
maximum energy transfer efficiency (E): 0.086

From patent US20200264162A1
